Experimental data: patent publication US20200055939A1 (Genentech, published 2020)

T1: MICA*008 on MEL-JUSO cells (human, UniProt Q29983 24-317)
T1 chain: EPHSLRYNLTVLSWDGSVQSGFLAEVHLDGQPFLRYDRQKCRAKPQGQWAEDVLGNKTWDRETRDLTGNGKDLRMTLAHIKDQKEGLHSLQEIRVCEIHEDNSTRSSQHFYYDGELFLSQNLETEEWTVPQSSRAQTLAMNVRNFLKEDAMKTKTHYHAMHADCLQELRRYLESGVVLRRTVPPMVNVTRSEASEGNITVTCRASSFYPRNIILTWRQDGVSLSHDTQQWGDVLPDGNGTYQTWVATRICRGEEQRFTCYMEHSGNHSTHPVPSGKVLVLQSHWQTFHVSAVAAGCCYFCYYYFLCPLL

T2: huMICA*002 alpha 3-his (human)
T2 construct: whole construct entry: GS, alpha 3 domain, GNS, His8; also called MICA002.His; MICA*002 alpha3 construct
T2 chain: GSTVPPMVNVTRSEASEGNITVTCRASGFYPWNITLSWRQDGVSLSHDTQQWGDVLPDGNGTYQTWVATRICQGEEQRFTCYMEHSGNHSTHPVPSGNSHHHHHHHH

T3: huMICA*004 alpha 3-his (human)
T3 construct: whole construct entry: GS, alpha 3 domain, GNS, His8; also called MICA004.His; MICA*004 alpha3 construct
T3 chain: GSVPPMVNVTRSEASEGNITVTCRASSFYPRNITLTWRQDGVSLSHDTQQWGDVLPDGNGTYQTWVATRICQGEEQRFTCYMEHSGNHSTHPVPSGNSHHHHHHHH

T4: huMICA*008 alpha 3-his (human)
T4 construct: whole construct entry: GS, alpha 3 domain (Thr204-Ser297), GNS, His8; also the construct of the FPOP experiment; also called MICA008.His; MICA*008 alpha3 construct
T4 chain: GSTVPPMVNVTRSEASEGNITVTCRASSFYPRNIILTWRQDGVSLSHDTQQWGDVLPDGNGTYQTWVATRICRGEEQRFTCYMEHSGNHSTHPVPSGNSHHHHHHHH

T5: huMICB*005 alpha 3-his (human)
T5 construct: whole construct entry: GS, alpha 3 domain, GNS, His8; also called MICB005.His; MICB*005 alpha3 construct
T5 chain: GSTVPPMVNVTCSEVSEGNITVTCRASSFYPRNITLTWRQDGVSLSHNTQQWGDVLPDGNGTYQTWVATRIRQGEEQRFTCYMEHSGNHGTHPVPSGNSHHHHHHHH

B1: 13A9 (antibody, V domains shown)
VH: QVQLQQSGAELVRPGTSVKVSCKASGYAFTNYLIEWVKQRPGQGLEWIGAINPGSGATNYNEKFKDKARLTADKSSNTAYLQFSSLTSDDSAVYFCARFLGNYFDNWGQGATLTVSS
VL: DIQMTQSPASLSASVGETVTITCRASGNIHSYLAWYQQKQGKSPQLLVYYAETLADGVPSRFSGRGSGTQYSLKINSLQPEDFGSYFCQQFWTTPYTFGGGTKVEIK
notes: mouse variable domains
B2: 15F11 (antibody, V domains shown)
VH: EIQLQQSGPELVKPGASVRVSCKPSGYAFTSNNIYWVKQSRRKSLEWIGYIDPYIGRIIYNQQFKDKATLTVDKSSSTAYMHLNSLTSEDSAVYYCSRSGERSNFDYWGQGTTLTVSS
VL: EIVLTQSPTAMAASPGEKITITCSASSSISSNYLHWYQQKPGFSPKLLIYRTSNLASGVPARFSGSGSGTSYSLTIGPMEAEDVATYYCQQGGSLPLTFGAGTKVEIK
notes: mouse variable domains
B3: 1D5v1 (antibody, IgG1, V domains shown)
VH: EIQLVQSGAEVKKPGASVKVSCKASGYAFTSQNIYWVRQAPGQGLEWIGYIEPYNVVPMYNPKFKGRATLTVDKSTSTAYMELRSLRSDDTAVYYCARSGSSNFDYWGQGTLVTVSS
VL: EIVLTQSPDFQSVTPKEKVTITCSASSSISSHYLHWYQQKPDQSPKLLIYRTSNLASGVPSRFSGSGSGTDYTLTINSLEAEDAATYYCQQGSSLPLTFGQGTKVEIK
notes: humanized variant of 1D5; also called lD5v1
B4: 1D5v2 (antibody, IgG1, V domains shown)
VH: EVQLVQSGAEVKKPGASVKVSCKASGYAFTSQNIYWVRQAPGQGLEWMGYIEPYNVVPMYNPKFKGRVTMTTDTSTSTAYMELRSLRSDDTAVYYCARSGSSNFDYWGQGTLVTVSS
VL: EIVLTQSPDFQSVTPKEKVTITCSASSSISSHYLHWYQQKPDQSPKLLIYRTSNLASGVPSRFSGSGSGTDYTLTINSLEAEDAATYYCQQGSSLPLTFGQGTKVEIK
notes: humanized variant of 1D5
B5: 1D5v3 (antibody, IgG1, V domains shown)
VH: EIQLVQSGAEVKKPGASVKVSCKASGYAFTSQNIYWVRQAPGQGLEWIGYIEPYNVVPMYNPKFKGRATLTVDKSTSTAYLELSSLRSEDTAVYYCARSGSSNFDYWGQGTLVTVSS
VL: EIVLTQSPDFQSVTPKEKVTITCSASSSISSHYLHWYQQKPDQSPKLLIYRTSNLASGVPSRFSGSGSGTDYTLTINSLEAEDAATYYCQQGSSLPLTFGQGTKVEIK
notes: humanized variant of 1D5
B6: 1D5v4 (antibody, IgG1, V domains shown)
VH: EVQLVQSGAEVKKPGASVKVSCKASGYAFTSQNIYWVRQAPGQGLEWIGYIEPYNVVPMYNPKFKGRVTITRDTSTSTAYLELSSLRSEDTAVYYCARSGSSNFDYWGQGTLVTVSS
VL: EIVLTQSPDFQSVTPKEKVTITCSASSSISSHYLHWYQQKPDQSPKLLIYRTSNLASGVPSRFSGSGSGTDYTLTINSLEAEDAATYYCQQGSSLPLTFGQGTKVEIK
notes: humanized variant of 1D5
B7: 1D5v5 (antibody, IgG1, V domains shown)
VH: EIQLVQSGAEVKKPGASVKVSCKASGYAFTSQNIYWVRQAPGQGLEWIGYIEPYNVVPMYNPKFKGRATLTVDKSTSTAYMELRSLRSDDTAVYYCARSGSSNFDYWGQGTLVTVSS
VL: EIVLTQSPDFQSVTPKEKVTITCSASSSISSHYLHWYQQKPDQSPKLLIKRTSNLASGVPSRFSGSGSGTDFTLTINSLEAEDAATYYCQQGSSLPLTFGQGTKVEIK
notes: humanized variant of 1D5
B8: 1D5v6 (antibody, IgG1, V domains shown)
VH: EVQLVQSGAEVKKPGASVKVSCKASGYAFTSQNIYWVRQAPGQGLEWMGYIEPYNVVPMYNPKFKGRVTMTTDTSTSTAYMELRSLRSDDTAVYYCARSGSSNFDYWGQGTLVTVSS
VL: EIVLTQSPDFQSVTPKEKVTITCSASSSISSHYLHWYQQKPDQSPKLLIKRTSNLASGVPSRFSGSGSGTDFTLTINSLEAEDAATYYCQQGSSLPLTFGQGTKVEIK
notes: humanized variant of 1D5
B9: 1D5v7 (antibody, IgG1, V domains shown)
VH: EIQLVQSGAEVKKPGASVKVSCKASGYAFTSQNIYWVRQAPGQGLEWIGYIEPYNVVPMYNPKFKGRATLTVDKSTSTAYLELSSLRSEDTAVYYCARSGSSNFDYWGQGTLVTVSS
VL: EIVLTQSPDFQSVTPKEKVTITCSASSSISSHYLHWYQQKPDQSPKLLIKRTSNLASGVPSRFSGSGSGTDFTLTINSLEAEDAATYYCQQGSSLPLTFGQGTKVEIK
notes: humanized variant of 1D5
B10: 1D5v14 (antibody, IgG1, V domains shown)
VH: EVQLVQSGAEVKKPGASVKVSCKASGYAFTSQNIYWVRQAPGQGLEWMGYIEPYNVVPMYNPKFKGRVTMTTDTSTSTAYMELRSLRSDDTAVYYCARSGSSNFDYWGQGTLVTVSS
VL: DIQMTQSPSSLSASVGDRVTITCSASSSISSHYLHWYQQKPGKAPKLLIYRTSNLASGVPSRFSGSGSGTDFTLTISSLQPEDFATYYCQQGSSLPLTFGQGTKVEIK
notes: humanized variant of 1D5; also called 1D5v14 second data point
B11: 1D5 (m IgG2a, CHO) (antibody, V domains shown)
VH: EIQLQQSGPELVKPGASVKVSCKASGYAFTSQNIYWVKQSHGKSLEWIGYIEPYNVVPMYNPKFKGKATLTVDKSSSSAYIHLNSLTSEDSAIYYCARSGSSNFDYWGQGTTLTVSS
VL: EIILTQSPTTMAASPGEKITITCSASSSISSHYLHWYQQKSGFSPKLLIYRTSNLASGVPARFSGSGSGTSYSLTIGTMEAEDVATYYCQQGSSLPLTFGAGTKVEIK
B12: 13A9 (m IgG2a, CHO) (antibody, V domains shown)
VH: QVQLQQSGAELVRPGTSVKVSCKASGYAFTNYLIEWVKQRPGQGLEWIGAINPGSGATNYNEKFKDKARLTADKSSNTAYLQFSSLTSDDSAVYFCARFLGNYFDNWGQGATLTVSS
VL: DIQMTQSPASLSASVGETVTITCRASGNIHSYLAWYQQKQGKSPQLLVYYAETLADGVPSRFSGRGSGTQYSLKINSLQPEDFGSYFCQQFWTTPYTFGGGTKVEIK
B13: 15F11 (m IgG2a, CHO) (antibody, V domains shown)
VH: EIQLQQSGPELVKPGASVRVSCKPSGYAFTSNNIYWVKQSRRKSLEWIGYIDPYIGRIIYNQQFKDKATLTVDKSSSTAYMHLNSLTSEDSAVYYCSRSGERSNFDYWGQGTTLTVSS
VL: EIVLTQSPTAMAASPGEKITITCSASSSISSNYLHWYQQKPGFSPKLLIYRTSNLASGVPARFSGSGSGTSYSLTIGPMEAEDVATYYCQQGGSLPLTFGAGTKVEIK
B14: 6E1 (m IgG2a, CHO) (antibody, V domains shown)
VH: QGQMQQSGAELVKPGASVKLSCKTSGFTFSDNYISWLKQKPGQSLEWIAWIYAGTGGSSYNQKFRDKAQLTVDTSSRTAYMQLSSLTTEDSAIYYCARHDYYGTSGAWFAYWGRGTLVTVSA
VL: DVLMTQTPLSLPVSLGDQASISCRSSQHIVHSNENTYLEWYLQKPGQSPKLLIYKVSNRFSGVPDRFSGSGSGTDFTLKISRVEAEDLGVYYCFQGSHVPWTFGGGTKVEIK

Experiments:
[1] = molecular target: T1, MICA*008 on MEL-JUSO cells; assay: cell-based or functional assay
[2] = molecular target: MICA*004 on HCC1534 cells (human, UniProt Q29983 24-383); assay: cell-based or functional assay
[3] = molecular target: MICB*005 on HCC1534 cells (human); assay: cell-based or functional assay
huMICA*002 alpha 3-his = molecular target: T2, huMICA*002 alpha 3-his; assay: SPR, Biacore 8K, antibody on Protein A chip
Description: (§1) A Protein A sensorchip (GE Healthcare) was used following manufacturer provided protocols to capture humanized anti-MICA/B antibodies. The MICA/B alleles were passed over. Antibody binding was measured to human MICA 002, 004, 008 and MICB 005 alpha 3 domains (His tagged, in-house). Sensograms for binding of MICA/B were recorded using an injection time of 2 minutes with a flow rate of 30 ml/min, at a temperature of 25° C., and with a running buffer of 10 mM HEPES, pH 7.4, 150 mM NaCl, 3mM EDTA, and 0.005% Tween 20. After injection, disassociation of the alpha 3 domain from the antibody was monitored for 10 minutes in running buffer. The surface was regenerated between binding cycles with a 60 ul injection of 10 mM Glycine HCl pH 1.5. […] The data was analyzed using a 1:1 binding model. Sensograms of MICA alleles binding to captured anti-MICA antibody were used to calculate the dissociation constant (Kd).

huMICA*004 alpha 3-his = molecular target: T3, huMICA*004 alpha 3-his; assay: SPR, Biacore 8K, antibody on Protein A chip
Description: as §1

huMICA*008 alpha 3-his = molecular target: T4, huMICA*008 alpha 3-his; assay: SPR, Biacore 8K, antibody on Protein A chip
Description: as §1

huMICB*005 alpha 3-his = molecular target: T5, huMICB*005 alpha 3-his; assay: SPR, Biacore 8K, antibody on Protein A chip
Description: as §1
For % Inhibition in this document: test concentration or dose not given here.

Binder | % Inhibition [1] [%] | % Inhibition [2] [%] | % Inhibition [3] [%] | Kd (huMICA*002 alpha 3-his) [nM] | Kd (huMICA*004 alpha 3-his) [nM] | Kd (huMICA*008 alpha 3-his) [nM] | Kd (huMICB*005 alpha 3-his) [nM]
B1 | -7 | 21 | 61 | 4.82 | 6.77 | 2.35 | 2.35
B2 | 50 | 54 | 43 | 2.21 | 1.31 | 0.79 | 2.28
B3 | 52 | 54 | 41 | 1.4 | 1.17 | 0.96 | 1.96
B4 | 33 | 38 | 26 | 1.69 | 1.34 | 0.89 | 2.69
B5 | 50 | 56 | 38 | 1.21 | 0.96 | 0.85 | 1.78
B6 | 43 | 46 | 34 | 6.63 | 6.2 | 7.45 | 16.2
B7 | 36 | 39 | 32 | 2.59 | 2.13 | 1.64 | 3.99
B8 | 51 | 47 | 37 | 3.69 | 2.91 | 2.61 | 6.15
B9 | 51 | 48 | 42 | 2.21 | 1.67 | 1.7 | 3.31
B10 |  |  |  | 1.62 | 1.23 | 1.16 | 2.14
B11 | 74 | 59 | 76 |  |  |  | 
B12 | 29 | 34 | 60 |  |  |  | 
B13 | 69 | 60 | 57 |  |  |  | 
B14 | 36 | 40 | 47 |  |  |  | 
